From patent US20220195015A1 (published 2022)
Substitutions are numbered along the chain they refer to.

B1: C064 (antibody, V domains shown)
VH: EVQLLESGGDLVQPGGSLRLSCAASGFTFSNYAMSWVRQAPGKGLEWVSAISGSGGNTYYADSVKGRFTISRDNSKNTLYLQMNSLRAEDTAVYYCAKAVHYGGNSDRRFSEPSAPFDYWGQGTLVTVSS
VL: QSALTQPASVSGSPGQSITISCTGTSSDVGSYNLVSWYQQHPGKAPKLMIYEGSKRPSGVSNRFSGSKSGNTASLTISGLQAEDEADYYCCSYAGSSTPYVFGTGTKVTVL
B2: C060 (antibody, V domains shown)
VH: EVQLVESGGGLVQPGGSQRLSCAASGFTVSSNYMSWIRQAPGKGLEWVSVIYSGGSAYYVDSVKGRFTISRDNSKNTLYLQMNSLRPEDTAVYYCARIANYMDVWGKGTTVTVSS
VL: EIVMTQSPATLSVSPGERATLSCRASQSVSSHLAWYQQKPGQAPRLLIYGASTRATGIPTRFSGSGSGTEFTLTISSLQSEDFAVYYCQQYNNWPPLTFGGGTKVEIK
B3: C057 (antibody, V domains shown)
VH: QVQLVQSGAEVKRPGASVKLSCKASGYIFTDYSIHWVRQAPGQGLEWMGWVNPNSGGGNSAQKFMDWVTMARDTSITTVYMELSRLRSDDTAVYYCARGPLFHKLVYDSWSGYHDGFDIWGQGTMVTVSS
VL: QSALTQPASVSGSPGQSITISCTGTSSDVGAYKFVSWYQQHPGKAPQLIIYEVSNRPSGVSNRFSGSKSGNTASLTISGLQAEDEADYYCSSYTNASTWVFGGGTELTVL
B4: C058 (antibody, V domains shown)
VH: QVQLVQSGAEVKKPGASVKVSCKASGYIFTDYSMHWVRQAPGQGLEWIGWVNPNSGGTNYAQKFQGWVTMARDTSITTVYMELSRLKSDDTAVYFCARGPLFHRLVYDFWSGYHDGFDMWGQGTMVTVSS
VL: B3 VL with A31G, Q47K, I49M, S91N, N95S, A96S, E106K
B5: C068 (antibody, V domains shown)
VH: QVQLVESGGGVVQPGRSLRLSCVASGFSFSTYGMHWVRQAPGKGLEWVALIWSDGSNKYYGDAAEGRFTISRDNSNNTLYLQMNNLRAEDTALYYCARDHSSSSFVYYYYMDVWGKGTTVTVSS
VL: QSALTQPRSVSGSPGQSVTISCTGTSSDIGGYNYVSWYQQHPDKAPKFIIFDVSKRPSGVPDRFSGSKSGNTASLTISGLQAEDEADYYCCSYAGPYPYVFGTGTKVTVL
B6: C067 (antibody, V domains shown)
VH: VQLVESGGGVVQPGRSLRLSCAASGFSFRIFGMNWVRQAPGKGLDWVAGISHDGSDKYFADSVKGRFTISRDNSKNTLYLQMNSLRADDTAVYYCARDMEVDYYDRSGHYHVFHAFDIWGQGTMVTVSS
VL: DIVMTQSPDSLAVSLGARATINCKSSQSILYSSDNKSSLAWYQQKPGHPPKLLIYWASTRESGVPDRFSGSESGTDFTLTISNLQGEDVAVYYCQQYYSIPRSFGQGTKLEIK
B7: C059 (antibody, V domains shown)
VH: QVQLVQSGAEVKKPGASIKVSCKASGYTFTDYSMHWVRQAPGQGLEWMGWINPNSGGTKYAQKFQGWVTMTRDMSITTVYMELTRLRSDATAVFYCARGPLFHKLVYDSWTGYHDGFDIWGQGTMVTVSS
VL: QSALTQPASVSGSPGQSITISCTGTSSDVGGYNYVSWYQHYPGKAPKLMIYEVTHRPSGVSNRFSGSKSGNTASLTISGLQAEDEADYYCSSSTNSSTWVFGGGTKMTVL
B8: C050 (antibody, V domains shown)
VH: EVQLVESGGGLFQPGGSLRLSCAASGFSVRNNYVSWVRQAPGKGLEWVSVIYSGGTTYYADSVKGRFTISRDISENTLYLQMNSLRAEDTAVYYCAREGDVEGLHDFWSGYSRDRYYFDYWGQGTLVTVSS
VL: QSALTQPASVSGSPGQSIIISCTGTSGDIGGYNYVSWYQQHPGKAPKLMIYDVSFRPSGVSNRFSGSKSDNTASLTISGLQAEDEADYYCSSFTGNNTRVFGTGTKVTVL
B9: C053 (antibody, V domains shown)
VH: B8 VH with F12I, S28I, R30S, V34M, E46D, I73N, E75K, L104Y, F107S
VL: QSALTQPASVSGSPGQSITISCTGSSSDVGGYNFVSWYQQHPGRAPKLMIYDVSNRPSGVSNRFSGSKSGNTASLTISGLQVEDEADYYCSSYTNNNTRVFGTGTKVTVL
B10: C052 (antibody, V domains shown)
VH: EVQLVESGGGLIRPGGSLRLSCAASGFSVSNNYMSWVRQAPGKGLEWVSVIYSGGTTYYADSVKGRFNISRDNSKNTVYLQMNSLRAEDTAVYYCAREGDVEGYYDFWSGYSRDRYYFDYWGQGALVTVSS
VL: B9 VL with S25T, F34Y, R44K, V82A, S91N, N95S
B11: C054 (antibody, V domains shown)
VH: B10 VH with R13Q, S28T, T56S, Y59D, N68T, V78L, R86S, A125T
VL: B9 VL with S25T, F34Y, R44K, V82A, N95S, N96S, N97S, T98A
B12: C055 (antibody, V domains shown)
VH: EVQLVESGGGLVQPGGSLRLSCAASGFSVSTKYMTWVRQAPGKGLEWVSVLYSGRTDYYADSVKGRFTISRDSSKNILYLQMSSLRVEDTGFYYCARDSSEVRDHPGHPGRSVGAFDIWSQGTMVTVSS
VL: QSALTQPASVSGSPGQSIAISCTGTSNDVGSYTLVSWYQQYPGKAPKLLIFEDSQRSSGISNRFSGSKSGNTASLTISGLRGEDEADYYCCSYAGSHTFVFGGGTKVTVL
B13: C051 (antibody, V domains shown)
VH: B10 VH with R13Q, P14A, S28G, S30R, N68T, Y79F, Y104F, Y105S, F107L, A125T
VL: QSALTQPASVSGSPGQSITFSCTGTSSDVGGYNYVSWYQQYPGKAPKLLIYDVTNRPSGVSDRFSGSKSGNTASLTISGLQAEDEADYYCSSFTSSNTRVFGTGTKVTVL
B14: C062 (antibody, V domains shown)
VH: EVQLVESGGGLVKPGGSLRLTCAASGFTFSTYSMNWVRQAPGKGLEWVSSISSSSSYIYYADSVKGRFTISRDNAKNSLYLQMNSLRAEDTAVYYCARERGYYGGKTPPFLGGQGTLVTVSS
VL: NFMLTQPHSVSESPGKTVTISCTGSSGSIASNYVQWYQQRPGSAPTTVIYEDNQRPSGVPDRFSGSIDSSSNSASLTISGLKTEDEADYYCQSYDSSNYWVFGGGTKLTVL
B15: C063 (antibody, V domains shown)
VH: EVQLVQSGAEVKKPGDSLKISCKASGYSFTRYWIGWVRQMPGKGLDWMGIIYPGDSDTRYSSSFQGQVTISADKSISTAYLQWSSLKASDTSLYYCVRRASSTNFEFWGQGTLVTVSS
VL: SYELTQPPSVSVAPGQTATITCGGNNIGSKTVHWYQQKPGQAPVVVVYDDSDRPSGIPERFSGSKSGSTATLTITRVEAGDEADYYCQVWDSTSDHYVFGTGTKVAVI
B16: C065 (antibody, V domains shown)
VH: QVQLQESGPGLVKPSQTLSLTCTVSGGSISSSNYYWSWIRQHPGKGLEWIGYIDYSGGTYYNPSLKSRVTISVDTSKNQFSLKLSSVTAADTAVYYCARVSTTVTTYLVGGFDIWGQGTMVTVSS
VL: IRMTQSPSSLSASVGDRVTITCQASQDITNYLNWYQQKPGKAPKLLLYDASNLETGVPSRFSGSGSGTDFTFTISSLQPEDIATYYCQQYDNLPWTFGQGTKVEIK
B17: C066 (antibody, V domains shown)
VH: EVQLVESGGGLIQPGGSLRLSCAASGLLVSRNYMTWVRQAPGKGLEWVSVIYSGGSTFYADSVRGRFTISRDNSKNTLYLQMDSLRAEDTAVYYCARDVGDYYGMDVWGQGTTVTVSS
VL: DIQLTQSPAFLSASVGDRVTITCRASQGMSNYLAWYQQKPGKAPNLLIYTASTLQSGVPSRFSGSGSGTEFTLTISSLQPEDFATYYCQLLNSYPQLTFGGGTKVEIK
B18: C094 (antibody, V domains shown)
VH: QVQLQESGPGLVKPSETLSLTCNVSGVSISTDYWSWIRQPPGKGLEWIGYIYYSGNTKDYNPSLKSRVTISVDTSKNQFSLMLSSVTAADTAVYYCARHYDILTSLSWFDPWGQGTLVTVSS
VL: QSVLTQPPSVSAAPGQKVTISCSITNSNLGNIYVSWYQQLPGTAPKLLIYGNNKRPSGIPDRFSGSKSGTSATLGITGLQTGDEAHYYCGTWDSSLSANWVFGGGTKLTVL
B19: C035 (antibody, V domains shown)
VH: EVQLVESGGGLVQPGGSLRLSCAASGFIFSSYWMTWVRQAPGKGLEWVASIKYNGNERNYVDSVKGRFTISRDNARNSLFLQLNNLGAEDTAVYYCARQPESTIWYYFDYWGQGTLVTVSS
VL: SYELTQPPSVSVSPGQTARVTCSGHALPDQYTYWYQQRPGRAPVLVIYVNNQRPSGIPDRFSATTSGTTVTLTISGVQAEDEADYYCQSADSSGSYVVFGGGTKLTVL
B20: C080 (antibody, V domains shown)
VH: EVQLVQSGAEVKKPGESLNISCKASGYSFTIYWIAWVRQLPGKGLEWMGIIYPGDSDTRYSPSFQGQVTISADKSISTAYLQWRSLKASDSAVYYCARGVAVDWYFDLWGRGTLVTVSS
VL: QSVLTQPPSVSGAPGQRVTISCAGSSSNIGAGFDVYWYQQLPGTAPKLLIYGNNNRPSGVPDRFSGSKSGTSASLAITGLQAEDEADYYCQSSGSVLSDLYVFGTGTKVTVL
B21: C521 (antibody, V domains shown)
VH: EVQLVESGGGLVRPGGSLTLSCVASGFTVGSNFMSWVRQAPGKGLEWVSLIYNSGGTHYADSVKGRFTISRDRSKNTLYLQMNSLRAEDTAIYYCANHGYYYYMDVWGKGTTVTVS
VL: QSALTQPASVSGSPGQSITISCTGTGSDIGAYNYVSWHQHHPGKAPKLIIYDVSNRPSGVSNRFSGSKSGNTASLTISGLQAEDEADYYCTSYTNTTTPWVFGGGTKVTVL
B22: C091 (antibody, V domains shown)
VH: QVQLVQSGAEVKKPGSSVKVSCKASGGTFSSYTISWVRQAPGQGLEWMGRIIPILGIANYAQKFQGRVTITADKSTSTAYMELSSLRSEDTAVYYCARDSGYSGYGSTYYMDVWGKGTTVTVSS
VL: QSVLTQPPSVSGAPGQRVTISCTGSSSNIGAGYDVHWYQQLPGTAPKLLIYGNSNRPSGVPDRFSGSKSGTSASLAITGLQAEDEADYYCQSYDSSLSGSVFGTVTKVTVL
B23: C092 (antibody, V domains shown)
VH: B22 VH with T28S, S30T, S31N, Y32H, T33F, I57T, K63N, T69M, I70M
VL: B22 VL with S26N, T44A, S54N, G70D, A82V, G99D, T104S, V105G
B24: C522 (antibody, V domains shown)
VH: EVQLVESGGGLIQPGGSLRLSCAASEFIVSRNYMSWVRQAPGKGLEWVSVIYSGGSTFYADSVKGRFTISRDESKNTLYLQMNSLRAEDTAIYYCARDRGGGILDYWGQGTLVTVS
VL: DIQMTQSPSSLSASVGDRVTITCQASQDINIFLNWYQQKPGKAPKLLIYDASSLETGVPSRFSGSGSGTDFTFTISSLQPEDFATYYCQQYGNLPKYTFGQGTKLEIK

molecular target: SARS-CoV-2 spike protein receptor binding domain (RBD) (SARS-CoV-2, UniProt P0DTC2 319-539); experiment: ELISA on coated RBD protein

Binder	EC50
B1	363 ng/mL
B2	43.5 ng/mL
B3	2.31 ng/mL
B4	2.28 ng/mL
B5	5.46 ng/mL
B6	6.98 ng/mL
B7	1.88 ng/mL
B8	1.93 ng/mL
B9	1.53 ng/mL
B10	1.23 ng/mL
B11	1.58 ng/mL
B12	1.25 ng/mL
B13	1.65 ng/mL
B14	4.69 ng/mL
B15	414 ng/mL
B16	29.1 ng/mL
B17	4.2 ng/mL

molecular target: SARS-CoV-2 receptor binding domain (RBD), wild type (SARS-CoV-2, UniProt P0DTC2 319-539); experiment: ELISA, RBD protein coated, mAb titrated

Binder	EC50
B18	1.67 ng/mL
B19	15.2 ng/mL
B20	1.97 ng/mL
B21	6.9 ng/mL
B22	89.5 ng/mL
B23	7.07 ng/mL
B24	0.93 ng/mL
